Numbering of substitutions follows the chain as printed.
B1: 54-bp hemi-Me (F) (dsDNA)
DNA 1: GCGGGTGATGGACCCTATACGCGGCCGCCCTGGAGAATCCCGGTGCCGCGGCCG
DNA 2: CGGCCGCGGCACCGGGATTCTCCAGGGCGGCCGCGTATAGGGTCCATCACCCGC
modifications: 5mC at 41,47,49,53 of strand 1
B2: -62W free DNA (dsDNA)
DNA 1: ATCAGAATCCCGGTGCCGAGGCCGCTCAATTGGTCGTAGACAGCTCTAGCACCGCTTAAACGCACGTACGCGCTGTCCCCCGCGTTTTAACCGCCAAGGGGATTACTCCCTAGTCTCCAGGCACGTGTCAGATATATACATCGAT
DNA 2: ATCGATGTATATATCTGACACGTGCCTGGAGACTAGGGAGTAATCCCCTTGGCGGTTAAAACGCGGGGGACAGCGCGTACGTGCGTTTAAGCGGTGCTAGAGCTGTCTACGACCAATTGAGCGGCCTCGGCACCGGGATTCTGAT
modifications: 5mC at 11 of strand 1
B3: -64C free DNA (dsDNA)
DNA 1: B2 DNA 1 with A136C, T137G
DNA 2: B2 DNA 2 with A9C, T10G
modifications: 5mC at 9 of strand 2

Legend:
[1] = molecular target: T1, N. vectensis CDCA7 homolog (Nematostella vectensis, UniProt A7SQU1 1-157); test: pull-down; boiled extract; Oligo EMSA: 20 mM Tris-HCl pH 7.5, 150 mM NaCl, 1 mM DTT, 0.05% NP-40, 10% glycerol, 4 C, 0.5 uM DNA; nucleosome EMSA: same with 50 mM NaCl, 0.1 uM nucleosome; details: protein: ivt; tags: 35S-Met; label: 5' biotin on strand 2; blunt
T1 sequence: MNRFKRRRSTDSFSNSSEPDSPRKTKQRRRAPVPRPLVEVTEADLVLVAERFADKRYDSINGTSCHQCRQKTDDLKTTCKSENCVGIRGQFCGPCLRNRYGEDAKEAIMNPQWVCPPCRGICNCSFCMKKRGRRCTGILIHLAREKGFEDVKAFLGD

[2] = molecular target: T2, A. thaliana CDCA7 homolog (Arabidopsis thaliana, UniProt Q0WPT6 1-417); test: as above; details: protein: ivt; tags: 35S-Met; label: 5' biotin on strand 2; blunt
T2 sequence: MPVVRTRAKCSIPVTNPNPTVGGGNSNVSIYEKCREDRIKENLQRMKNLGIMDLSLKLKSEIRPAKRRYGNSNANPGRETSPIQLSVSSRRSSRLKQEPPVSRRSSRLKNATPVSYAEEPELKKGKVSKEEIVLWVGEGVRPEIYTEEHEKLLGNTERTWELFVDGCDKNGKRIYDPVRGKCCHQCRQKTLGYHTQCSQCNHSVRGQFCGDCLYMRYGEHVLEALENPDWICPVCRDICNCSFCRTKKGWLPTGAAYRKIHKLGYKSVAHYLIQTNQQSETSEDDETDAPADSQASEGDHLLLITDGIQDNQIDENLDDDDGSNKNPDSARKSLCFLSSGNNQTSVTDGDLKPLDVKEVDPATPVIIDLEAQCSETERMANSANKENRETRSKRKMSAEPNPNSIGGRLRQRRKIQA

C. gigas CDCA7 homolog = molecular target: T3, C. gigas CDCA7 homolog (Crassostrea gigas, UniProt A0A8W8IWK5 1-264); test: as above; details: protein: ivt; tags: 35S-Met; label: 5' biotin on strand 2; blunt
T3 sequence: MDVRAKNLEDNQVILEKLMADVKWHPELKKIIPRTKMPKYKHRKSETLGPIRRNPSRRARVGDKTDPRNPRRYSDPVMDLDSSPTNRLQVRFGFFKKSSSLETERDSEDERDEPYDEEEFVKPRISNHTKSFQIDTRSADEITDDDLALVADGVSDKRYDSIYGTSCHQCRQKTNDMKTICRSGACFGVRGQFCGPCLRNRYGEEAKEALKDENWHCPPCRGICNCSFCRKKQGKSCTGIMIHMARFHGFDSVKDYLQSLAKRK

CDCA7L 322-454 = molecular target: T4, CDCA7L 322-454 (Homo sapiens, UniProt Q96GN5 322-454); test: pull-down; egg extract; Oligo EMSA: 20 mM Tris-HCl pH 7.5, 150 mM NaCl, 1 mM DTT, 0.05% NP-40, 10% glycerol, 4 C, 0.5 uM DNA; nucleosome EMSA: same with 50 mM NaCl, 0.1 uM nucleosome; details: protein: ivt; tags: 35S-Met; label: 5' biotin on strand 2; blunt
T4 sequence: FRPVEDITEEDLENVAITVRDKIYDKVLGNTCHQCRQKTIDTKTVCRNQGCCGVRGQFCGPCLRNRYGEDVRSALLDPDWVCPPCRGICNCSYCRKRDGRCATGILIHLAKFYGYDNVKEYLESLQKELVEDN

hCDCA7 264-371 C339S = molecular target: T5, hCDCA7 264-371 C339S (Homo sapiens, UniProt Q9BWT1 264-371, C339S); test: EMSA; free DNA preferred over nucleosome; Oligo EMSA: 20 mM Tris-HCl pH 7.5, 150 mM NaCl, 1 mM DTT, 0.05% NP-40, 10% glycerol, 4 C, 0.5 uM DNA; nucleosome EMSA: same with 50 mM NaCl, 0.1 uM nucleosome; details: protein: recombinant; tags: GST-SUMO removed; blunt
T5 sequence: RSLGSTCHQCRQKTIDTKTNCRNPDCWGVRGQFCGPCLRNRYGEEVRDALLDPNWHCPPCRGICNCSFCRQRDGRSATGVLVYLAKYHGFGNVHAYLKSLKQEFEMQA

Binder | binding result [1] | binding result [2] | binding result (C. gigas CDCA7 homolog) | binding result (CDCA7L 322-454) | binding result (hCDCA7 264-371 C339S)
B1 | binds | binds | binds | binds | –
B2 | – | – | – | – | binds
B3 | – | – | – | – | binds
